The values that follow come from patent publication US10287554B2, “Induced pluripotent stem cell model for Fabry disease and use thereof” (KOREA ADVANCED INSTITUTE OF SCIENCE AND TECHNOLOGY, priority 2013, dated 2019).

Holding throughout (format): cell-based, human
What all share (conditions): 10 μg/ml for 5 days, compared with before treatment (FIG. 15)

Experiment [1] relates to FB-iPSCs (Fabry disease patient originated iPSCs). Briefly: Gb3 deposit by anti-Gb3 immunofluorescent staining in FB-iPSCs after Fabrazyme treatment. As to the method: (§1) Particularly, the FB-iPSCs prepared in Example <1-2> were treated with phosphate buffered saline (PBS) containing 4% formaldehyde, followed by fixing at room temperature for 15 minutes. The cells were treated with 0.1% triton X-100 to give permeability to the cell membrane. After the treatment, the cells were added with 4% normal donkey serum, followed by blocking at room temperature for 1 hour. The cells were treated with the primary antibody such as anti-OCT4 antibody (1:300, R&D Systems, USA), anti-NANOG antibody (1:300, Cell signaling technology, USA), anti-SSEA-4 antibody (1:300, R&D Systems, USA), anti-SOX2 rabbit antibody (BD Transduction Laboratories, USA), anti-Tra-1-81 antibody (1:300, Millipore, USA) or anti-Tra-1-60 antibody (1:300, Millipore, USA), followed by culture overnight at 4° C. Then, the cells were washed several times with PBST (PBS containing 0.1% Tween-20). The cells were treated with Alexa Fluor 488 or Alexa Fluor 594-conjugated secondary antibody (Invitrogen, USA), followed by further culture for 1 hour, leading to immunofluorescent staining of FB-iPSCs.
To investigate whether or not the pharmacologic treatment during the FB-iPSC differentiation was effective in improving Fabry disease, the differentiation of vascular cells was induced from FB-iPSCs and then the cells were treated with Fabrazyme, the α-galactosidase recombinant protein. […]

The subject of experiment [2] is vascular endothelial cells differentiated from FB-iPSCs. Briefly: Gb3 deposit by anti-Gb3 immunofluorescent staining in FB-iPSC originated vascular endothelial cells after Fabrazyme treatment. As to the method:
as §1
(§2) Particularly, the FB-iPSCs developed by the same manner as described in Example <1-2> were chopped in even sizes of 300˜500 μm in diameter by using a 10 μl syringe needle. […]

In experiment [3] the test system is vascular smooth muscle cells differentiated from FB-iPSCs. Kind of experiment: Gb3 deposit by anti-Gb3 immunofluorescent staining in FB-iPSC originated vascular smooth muscle cells after Fabrazyme treatment. As for the experimental part: as §1, §2

B1: Fabrazyme: the α-galactosidase recombinant protein (GLA recombinant protein), belonging to agalsidase beta (protein, UniProt P06280 32-429, looked up)
Alpha-galactosidase A: LDNGLARTPTMGWLHWERFMCNLDCQEEPDSCISEKLFMEMAELMVSEGWKDAGYEYLCIDDCWMAPQRDSEGRLQADPQRFPHGIRQLANYVHSKGLKLGIYADVGNKTCAGFPGSFGYYDIDAQTFADWGVDLLKFDGCYCDSLENLADGYKHMSLALNRTGRSIVYSCEWPLYMWPFQKPNYTEIRQYCNHWRNFADIDDSWKSIKSILDWTSFNQERIVDVAGPGGWNDPDMLVIGNFGLSWNQQVTQMALWAIMAAPLFMSNDLRHISPQAKALLQDKDVIAINQDPLGKQGYQLRQGDNFEVWERPLSGLAWAVAMINRQEIGGPRSYTIAVASLGKGVACNPACFITQLLPVKRKLGFYEWTSRLRSHINPTGTVLLQLENTMQMSLKDLL
On to B1, for which the Gb3 deposit entry in experiment [1] was “significantly reduced and hardly detected”; in experiment [2] it was “significantly reduced and hardly detected”; in experiment [3], “significantly reduced and hardly detected”.
